Read-outs that look alike come from different tables or passages of the source.
Legend:
NKG2D (Homo sapiens) [1] = target: NKG2D (Homo sapiens) (UniProt P26718); details: cited from earlier work
NKG2D (Homo sapiens) [2] = target: NKG2D (Homo sapiens) (UniProt P26718); details: cited from earlier work; remark: listed apart in the source
[3] = target: NKG2D (in the affinity measurement) (UniProt O54709)
Sequence of UniProt O54709 (O54709 whole entry): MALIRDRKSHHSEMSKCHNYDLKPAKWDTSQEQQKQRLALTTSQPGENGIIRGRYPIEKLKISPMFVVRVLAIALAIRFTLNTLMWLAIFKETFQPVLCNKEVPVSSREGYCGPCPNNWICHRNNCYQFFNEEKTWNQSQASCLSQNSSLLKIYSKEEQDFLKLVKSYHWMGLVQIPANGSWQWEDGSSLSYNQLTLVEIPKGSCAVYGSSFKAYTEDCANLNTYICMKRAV

Sequence of UniProt P26718 (P26718 whole entry): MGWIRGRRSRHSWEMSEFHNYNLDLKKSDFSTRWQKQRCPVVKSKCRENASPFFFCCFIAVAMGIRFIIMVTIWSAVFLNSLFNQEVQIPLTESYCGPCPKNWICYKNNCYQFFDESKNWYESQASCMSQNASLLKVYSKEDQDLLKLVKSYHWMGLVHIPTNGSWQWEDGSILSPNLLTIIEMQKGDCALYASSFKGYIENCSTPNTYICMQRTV

Row | Substance | Kd [3] | further results
1 | MICA (from UniProt Q29983) |  | Kd (NKG2D (Homo sapiens) [1]): 1000 nM
2 | MICB (from UniProt Q29980) |  | Kd (NKG2D (Homo sapiens) [2]): 1000 nM
3 | secMULT1 (secreted ectodomain fragment of HA-MULT1) (domain or fragment) | 19 nM | 
4 | shed HA-MULT1 (domain or fragment) | 13 nM | 

Reference: publication PMC4856222
